Experimental findings from patent publication CN114075280A (DONGGUAN PENGZHI BIOTECHNOLOGY CO LTD, dated 2022) are described below.

This experiment has as its target NGAL抗原 (中性粒细胞明胶酶相关载脂蛋白, Neutrophil gelatinase-associated lipocalin) (UniProt P80188 21-198). The experiment in a line: BLI, antibody captured on AMC sensor, NGAL in solution. (In BLI a coated tip is dipped into the sample, and binding shifts an interference pattern.)

Sequence of NGAL抗原 (中性粒细胞明胶酶相关载脂蛋白, Neutrophil gelatinase-associated lipocalin) (P80188 21-198 limits assumed): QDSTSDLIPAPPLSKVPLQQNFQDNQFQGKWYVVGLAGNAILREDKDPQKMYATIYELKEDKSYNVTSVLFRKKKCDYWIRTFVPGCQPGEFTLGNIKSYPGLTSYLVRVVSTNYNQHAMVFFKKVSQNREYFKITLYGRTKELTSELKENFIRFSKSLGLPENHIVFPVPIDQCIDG

B1: 实施例1的抗NGAL单克隆抗体(WT) (antibody, V domains shown)
VH: QIQLKESGPGLVQPSETLSLTCTVSGASVTSYSISWVRQPSGKGPEWMGRMYYNGDTLYNSVIKSRLSISRDTSKNQVFLKMNSLQTDDTGTYYCARDPILPPYFDYWGQGVMVTVSS
VL: DVQMTQSPSYLAASPGESVSISCKFSKSLSNYVAWYQQKPGEAYKLLTHSASTVQSGIPSRISGSGSGTDFTLTIRSLEPEEFGLYYCQQHYENPYTFGAGTKLELKR
On to B1, for which binding was put at a Kd of 14.8 nM; the koff (as a rule, the first-order rate constant of dissociation) came out at 0.000313 s⁻¹; the kon (usually the rate constant with which the complex forms) was 21200 M⁻¹ s⁻¹.
